Article PMC10907724, “Optineurin provides a mitophagy contact site for TBK1 activation” (The EMBO Journal, 2024)

B1: GST-TBK1 (677–729 aa) (domain or fragment, UniProt Q9UHD2 677-729, looked up)
chain: YPSSNTLVEMTLGMKKLKEEMEGVVKELAENNHILERFGSLTMDGGLRNVDCL
notes: Plasmid pGEX6P1_opt-TBK1 (677–729aa); also called GST-tagged TBK1 (677–729 aa); GST-TBK chimera; source: E. coli BL21-CodonPlus(DE3)-RIL, purified (glutathione Sepharose); not shown: GST, N-terminal, kept
B2: recombinant OPTN monobody clone #3 (His6-tagged) (designed binder)
chain: VSDVPRDLEVVAATPTSLLISWDAPWWWDYGYMYYRITYGETGGNSPVQEFTVPGSKSTATISGLKPGVDYTITVYAWDVAEWVTKVATSWPISINYRT
B3: recombinant OPTN monobody clone #4 (His6-tagged) (designed binder)
chain: VSDVPRDLEVVAATPTSLLISWDAPWFWYFPYYYQEWYYRITYGETGGNSPVQEFTVPGSKSTATISGLKPGVDYTITVYAAMELKGIQEYRNPISINYRT

What was measured:
[1] = biological target: T1, OPTN (26–196 aa)-EGFP with E50K (UniProt Q96CV9 26-196, E50K); experiment: pull-down; recombinant GST-TBK1 (677–729 aa), OPTN (26–196 aa)-EGFP or EGFP alone, and monobodies, 4.5 μM each, with glutathione Sepharose in 50 mM Tris–HCl pH 7.5, 120 mM NaCl, 1 mM TCEP, 10% glycerol, 30 min at room temperature; washes with 0.1% Triton X-100; CBB staining; conditions: both partners purified
T1 construct: source: E. coli BL21-CodonPlus(DE3)-RIL, purified (Ni-NTA); not shown: EGFP, C-terminal, kept

[2] = biological target: T2, biotinylated OPTN (26–196 aa) (UniProt Q96CV9 26-196, NH2-GGG(Lys[Biotin])-CONH2 joined at the C-terminal sortase recognition sequence by Sortase 5Y); experiment: BLI; biotinylated OPTN (26–196 aa) immobilised on a streptavidin biosensor (Octet); monobody as analyte at various concentrations; 30 °C; 50 mM Hepes-KOH pH 7.5, 300 mM NaCl, 0.05% Tween 20, 0.1% PEG6000; association 600 s, dissociation 600 s; global fitting; conditions: both partners purified
T2 construct: also called Biotin-modified OPTN; not shown: GST, N-terminal, cleaved; His6, C-terminal, cleaved; biotin (GGGK-biotin), C-terminal, kept
T2 sequence (Q96CV9 26-196): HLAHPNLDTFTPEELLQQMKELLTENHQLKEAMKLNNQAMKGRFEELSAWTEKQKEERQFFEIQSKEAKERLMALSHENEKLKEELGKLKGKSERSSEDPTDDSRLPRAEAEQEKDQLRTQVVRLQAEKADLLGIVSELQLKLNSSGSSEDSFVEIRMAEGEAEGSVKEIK

T1 sequence (Q96CV9 26-196 E50K): as the sequence (Q96CV9 26-196) above, with E25K counted along it

Binder	binding result [1]	Kd [2] [nM]
B1	binds	–
B2	–	4.56
B3	–	6.19
